Patent publication US9284369B2, “Inhibition of angiogenesis” (Genentech, Inc., priority 2007, dated 2016)

System: Bv8 protein levels
Experiment: In vivo G-CSF administration, Bv8 protein levels (ELISA)
Set-up: species or system mouse
Procedure: Eight weeks old Balb/c mice were subcutaneously injected with 10 μg recombinant human G-CSF (Neupogen, Amgen) daily for eight consecutive days. Control animals were given PBS. At the end of study, BM, whole blood and spleen samples were taken for analysis. One group of animals was maintained for two days after G-CSF discontinuation. Neutrophil count was done using an automated, high-resolution, flow cytometry-based hematology analyzer (CellDyn 3000). Serum and BM Bv8 levels were measured by ELISA.
MaxiSorp® 96-well microwell plates (Nalge Nunc International, Rochester, N.Y.) were coated with […] 3F1 antibody (a mouse anti-human BV8 antibody, which also binds to mouse Bv8 in 50 mM carbonate buffer, pH 9.6, at 4° C. overnight. Plates were washed with PBS containing 0.05% polysorbate 20 and blocked with 0.5% bovine serum albumin, 10 ppm Proclin 300™ (Supelco, Bellefonte, Pa.) in PBS at room temperature for 1 h. After plates were washed, mouse BV8 standards (0.039-2.50 ng/ml in 2-fold serial dilution, Genentech) and samples (minimum 1:10 dilution) in PBS containing 0.5% bovine serum albumin, 0.05% polysorbate 20, 10 ppm Proclin 300® (Supelco, Bellefonte, Pa.) and 0.35N NaCl (sample buffer) were added to the plates. The plates were incubated for 2 h at room temperature. Unbound antibody was removed by a wash step. Antibody bound to the plates was detected by adding biotinylated 4E10 antibody (a hamster anti-mouse BV8 antibody, Genentech) followed by streptavidin-HRP (GE Healthcare, Buckinghamshire, United Kingdom) and 3,3′,5,5′-tetramethyl benzidine (Kirkegaard & Perry Laboratories, Gaithersburg, Md.) as the substrate. The reaction was stopped by adding 1 M phosphoric acid. Absorbance was read at 450 nm on a Titertek™ stacker reader (ICN, Costa Mesa, Calif.). The titration curves of the standards were fit using a four-parameter regression curve-fitting program (Genentech). Data points which fell in the range of the standard curve were used for calculating the mouse BV8 concentrations in samples.

B1: G-CSF: recombinant granulocyte-CSF: mouse or human (R&D Systems) or human Neupogen (Amgen) (protein, chains of the INN, looked up)
chain: MTPLGPASSLPQSFLLKCLEQVRKIQGDGAALQEKLCATYKLCHPEELVLLGHSLGIPWAPLSSCPSQALQLAGCLSQLHSGLFLYQGLLQALEGISPELGPTLDTLQLDVADFATTIWQQMEELGMAPALQPTQGAMPAFASAFQRRAGGVLVASHLQSFLEVSYRVLRHLAQP
increase of Bv8 levels in the BM above background (24 hours after G-CSF administration): ~30 fold | serum Bv8 levels (after G-CSF administration): dramatically increased | Bv8 levels in kidney, brain and liver (data not shown): no effect | time for BM and serum Bv8 to return to near baseline after discontinuing G-CSF (mouse, in vivo): ≤ 48 h
